Experiment: protein stability index of a GFP-peptide fusion (GPS, HEK-293T) (PSI 1-6); higher = more stable
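Further: lentivirally expressed fusions sorted by FACS into six bins by GFP to DsRed ratio, PSI derived from sequencing read proportions per bin multiplied by bin number.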

Question: For YHTSQSGDEMTSLSEYVSRMKETQ, which protein stability index (parent: IOH61079_77, c terminus: a fixed tail appended) is on record?
Answer: 3.7

Question: Which protein stability index (parent: IOH61084_4, c terminus: a fixed tail appended) does the source give for LPVETLGPASRMDPESERALQAPH here?
Answer: 4.39

Question: For FGSRSLYSLGGVRSLNVASGSGKS, which protein stability index (parent: IOH63384_8, c terminus: a fixed tail appended) is on record?
Answer: 1.86

Question: For CRNCINLQNEAQKRESFLKYKCLL, which protein stability index (parent: IOH62149_105, c terminus: a fixed tail appended) is on record?
Answer: 2

Question: With SVIEPVQESSFRSRKIAVEDENDL as the protein, how does the protein stability index (parent: IOH80698_41, c terminus: a fixed tail appended) read?
Answer: 5.18

Question: Which protein stability index (parent: IOH63495_23, c terminus: a fixed tail appended) does the source give for WIVDKQHVYIGSAGLDWQSLGQMK here?
Answer: 1.79

Question: With EILGCPLPDPNNYYHRRNEMTTTD as the protein, how does the protein stability index (parent: IOH80553_49, c terminus: a fixed tail appended) read?
Answer: 3.32

Question: With VAHVKHLSASQKALKEKEKASWSS as the protein, how does the protein stability index (parent: IOH62819_9, c terminus: a fixed tail appended) read?
Answer: 3.21

Question: For TASTKNCMVGYDMGATRCDFTLSK, which protein stability index (parent: IOH80553_117, c terminus: a fixed tail appended) is on record?
Answer: 2.15

Question: For KRTYWPDLDAKIREALVLRSVRVR, which protein stability index (parent: IOH63495_45, c terminus: a fixed tail appended) is on record?
Answer: 2.02

Question: Which protein stability index (parent: IOH62594_50, c terminus: a fixed tail appended) does the source give for FAQADALKGTLVSTLKEVKPTVFI here?
Answer: 1.64

Question: For FMPAMQFSIPPWRYDAEVVAIAQK [KIAA1161 WT], which protein stability index (parent: IOH61072_98, c terminus: a fixed tail appended) is on record?
Answer: 1.76

Question: With YTEGISQRMRVPEKLKVAPPNADL as the protein, how does the protein stability index (parent: IOH62657_3, c terminus: a fixed tail appended) read?
Answer: 2.94

Question: For SLGKQKVFIIRKSLLDELMEVQHF [SOAT2 WT], which protein stability index (parent: IOH63195_17, c terminus: a fixed tail appended) is on record?
Answer: 2.25

Question: Which protein stability index (parent: IOH61664_26, c terminus: a fixed tail appended) does the source give for FTSPDYQQQCHEMAERLEDSVLKG [C1orf55 WT] here?
Answer: 2.15

Question: Which protein stability index (parent: IOH63376_32, c terminus: a fixed tail appended) does the source give for GRKKYDIDPRNGIPKLTPGDNPYM here?
Answer: 3.52

Question: With RNALENIRKEMKLLEQAGSLKGSL [CRYL1 WT] as the protein, how does the protein stability index (parent: IOH81349_8, c terminus: a fixed tail appended) read?
Answer: 3.44

Question: Which protein stability index (parent: IOH61736_64, c terminus: a fixed tail appended) does the source give for FTPPTSLTRAGMSYYNSPGLHVQH here?
Answer: 1.82

Question: With YCSIKCQQEHWHAEHKRTCRRKR [ZMYND11 WT] as the protein, how does the protein stability index (parent: IOH62570_82, c terminus: native) read?
Answer: 2.53

Question: With FTQSGPIVSRATGRCLEVEMSKDA [GALNT9 WT] as the protein, how does the protein stability index (parent: IOH59749_32, c terminus: a fixed tail appended) read?
Answer: 2.02

Question: Which protein stability index (parent: IOH63384_35, c terminus: a fixed tail appended) does the source give for ELRNVQDVVEDYKKRYEEEINKRT here?
Answer: 3.49

Question: With YPEQSKGFHKAGSMLPPVNFSIVP as the protein, how does the protein stability index (parent: IOH63376_36, c terminus: a fixed tail appended) read?
Answer: 1.94

Question: For LTSDLYAPMVAGALARLGTVTVIS [SLC25A39 WT], which protein stability index (parent: IOH63154_27, c terminus: a fixed tail appended) is on record?
Answer: 2.94

Question: With CCSSADICPKCWTLMTMAIRIIDR [PRIM1 WT] as the protein, how does the protein stability index (parent: IOH60890_21, c terminus: a fixed tail appended) read?
Answer: 1.95

Question: Which protein stability index (parent: IOH80445_141, c terminus: a fixed tail appended) does the source give for KKPPEESTCFERPCFKWYTSPWSE [ADAMTSL2 WT] here?
Answer: 2.4

Question: Which protein stability index (parent: IOH62149_110, c terminus: a fixed tail appended) does the source give for EADYEDDSKIAFLMQLQDIQYLTE here?
Answer: 3.05

Question: Which protein stability index (parent: IOH61084_93, c terminus: a fixed tail appended) does the source give for EKQKQPRWREGTKDSHDPLPSWAE here?
Answer: 2.16

Question: Which protein stability index (parent: IOH80936_41, c terminus: a fixed tail appended) does the source give for FVVEYHGDLIEITDAKKREALYAQ here?
Answer: 2.1

Question: Which protein stability index (parent: IOH62594_9, c terminus: a fixed tail appended) does the source give for TPMTIPEFFRESVNRFGTYPALAS here?
Answer: 2.12

Question: With ASVTIQARAEQEEEFISNTLFKKI as the protein, how does the protein stability index (parent: IOH61736_17, c terminus: a fixed tail appended) read?
Answer: 3.51

Question: With TLFKKIQALQKEKETLAVNYEKEE as the protein, how does the protein stability index (parent: IOH61736_20, c terminus: a fixed tail appended) read?
Answer: 3.05

Question: With DDLTVVDAASLRRQIIKLNRRLQL as the protein, how does the protein stability index (parent: IOH62657_32, c terminus: a fixed tail appended) read?
Answer: 2.1

Question: Which protein stability index (parent: IOH62663_80, c terminus: a fixed tail appended) does the source give for HDPLYGKLFSTYLRPPHTSRGTSQ [LPCAT4 WT] here?
Answer: 2.6

Question: With EADKNDKAVKDLVVLLFETALLSS as the protein, how does the protein stability index (parent: IOH61079_108, c terminus: a fixed tail appended) read?
Answer: 1.84

Question: Which protein stability index (parent: IOH80494_8, c terminus: a fixed tail appended) does the source give for SKPKTFQAYLDDCHRRYSCAHCRA [YPEL3 WT] here?
Answer: 1.87

Question: Which protein stability index (parent: IOH63099_13, c terminus: a fixed tail appended) does the source give for LLQRELAQEDSLNKLALQYGCKVA [LYSMD4 WT] here?
Answer: 1.92

Question: For NSISSDKEATVPCTEILTEKKDTI, which protein stability index (parent: IOH80698_58, c terminus: a fixed tail appended) is on record?
Answer: 5.37

Question: Which protein stability index (parent: IOH62149_64, c terminus: a fixed tail appended) does the source give for KIREKEEWIKLDYHRRHNPKTNED here?
Answer: 4.36

Question: Which protein stability index (parent: IOH80936_29, c terminus: a fixed tail appended) does the source give for KKAQGKTQQNRKLTDFYPVRRSSR here?
Answer: 2.19

Question: For LQQLRARLQGLEADCVRGPDGVCL, which protein stability index (parent: IOH61084_56, c terminus: a fixed tail appended) is on record?
Answer: 2.22

Question: Which protein stability index (parent: IOH61084_108, c terminus: a fixed tail appended) does the source give for FGEDGIFRHDRLRFRDFVDALEDS here?
Answer: 2.59

Question: Which protein stability index (parent: IOH62657_1, c terminus: a fixed tail appended) does the source give for MAEISRIQYEMEYTEGISQRMRVP here?
Answer: 2.65

Question: With QKELQDVGQSLRIKEQEVCKLQEQ [SASS6 WT] as the protein, how does the protein stability index (parent: IOH63533_44, c terminus: a fixed tail appended) read?
Answer: 5.02

Question: Which protein stability index (parent: IOH80698_88, c terminus: a fixed tail appended) does the source give for DMVSNIELPTRIHEEVYFEPSSSK here?
Answer: 3.89

Question: For STTALGDKQRKANESKGTRESWDS [TCEB3B WT], which protein stability index (parent: IOH63382_68, c terminus: a fixed tail appended) is on record?
Answer: 3.77

Question: For QVANSAFVERVRKRGFEVVYMTEP, which protein stability index (parent: IOH61079_83, c terminus: a fixed tail appended) is on record?
Answer: 2.26

Question: For GKQAPRKKAQGKTQQNRKLTDFYP, which protein stability index (parent: IOH80936_28, c terminus: a fixed tail appended) is on record?
Answer: 2.67

Question: Which protein stability index (parent: IOH63495_20, c terminus: a fixed tail appended) does the source give for VTYMNMTAYNKGRLQSSFWIVDKQ here?
Answer: 2.36

Question: For FDKEWVAKQTKRMLDMKVNPIQGL, which protein stability index (parent: IOH62819_23, c terminus: a fixed tail appended) is on record?
Answer: 1.75

Question: With YSEYPECCVDVKPISQEKIESERA [DUSP5 WT] as the protein, how does the protein stability index (parent: IOH62976_23, c terminus: a fixed tail appended) read?
Answer: 4.09

Question: With CSWKGATKQRIQDQKVPYIFRDNQ [CHIT1 WT] as the protein, how does the protein stability index (parent: IOH63601_52, c terminus: a fixed tail appended) read?
Answer: 2.59

Question: Which protein stability index (parent: IOH61428_18, c terminus: a fixed tail appended) does the source give for GERVVINISGLRFETQLKTLCQFP here?
Answer: 2.31

Question: With YQSGGRIRRPVNVPIDIFSEEIRF as the protein, how does the protein stability index (parent: IOH61428_28, c terminus: a fixed tail appended) read?
Answer: 2
